From the DeepSol protein solubility set

assay: soluble on expression in E. coli; label from the status in PepcDB or PDB records

Sequence | soluble on expression in E. coli
MGSDKIHHHHHHMFNESDAPQPPKVLSTPLEIAANLRQLQESHDPLIITFHDRSHRFQSYVVHVDRESNTLALDEMIPRDGEKFIENGEHFRVEGFHDGVRIAWECDHALKISEVDGHRCYSGPLPQEVTYHQRRNAFRAALKLSQLVDIILDGAHLKGNGAMRGKLLDISATGCKLRFEGNVEDRLQLGQVYERFKAGNPLGLVDTMVELRHLHYEERINTTFAGVRFHNLSGQAQRKIESFVYQLQREARRFDKDDY | not soluble
MLSANRDCAFGRVHDFAGIRNAGDFRDKVPMHTYAQLQPWIERAQHESGAVLTTRPPLFFERSSGNSALQKLIPYTPEFLAQLQGSLTVWLADMYRQVPEISHGSGYWSMSPPLQQPAVSANGIPVGSVSDLQYLQGSAIAGLAGTLLIPDLAHDVVHWRRQTLLALVADADLSFISVWSPTFLTSLLQPLFDTERQTCAWLEAMLPASRKLALRHARAQGVFTELWPRLAAVSCWMDGPSHGYAVQLAALFPQARWLPKGLFATEGVVSVPFGEGQGCPLAIGSHYLEFVGDDGLPRGARSLRMGETAQVLLTTGAGLYRYVLGDRVRMVGNHAGTPRVAFVGRSASACDLVGEKLDEQLVEGVLAQCIDSADSACLIPDSRNTPPHYVALVSTSAVTPGQVLANSIETVLQGSFHYAHARTLGQLGPLRVRFVSGGAQTLAALLQRAAEATGVRAGDVKPRALISRLDTANALLAITEEFECPHL | not soluble
MKNWLAYINSLHSREIDLGLSRITSLAEKLSLNNFACPVVTVAGTNGKGSVVKSLESIYLAAGYKVAAYTSPHLLQFNERLRLNGEPATDELFIEAFKFIEDNRNHQPLSFFEFTTLAIFYICKKQNLDILLLEVGLGGRLDAVNIVEPDVAVITTIDIDHTDWLGEDRESIGREKAGIIRRHKPVIGGDPNLPNSVYEQVHLLEAPFYQLEKDFFAVSTKENWQWQGPTQDYQGLPLPSLKIENIATSLMVIHCLQSQLPVSQHSLIAGIKNAVLPGRFEWIQTPAPIVFDVAHNPQATAYLSEQLRKTDHAGRTLGVVGMLRDKDIPGALKPMLPCIDQWYAGTLSESRGATSANLQNVLSELQVENCYNFDSVADAFKKAVEDCRPQDRIVVFGSFYTVAMAKEVLLGGENGN | soluble
MSELKDIIAAVTPCKGADFELQALKIRQPQGDEVLVKVVATGMCHTDLIVRDQKYPVPLPAVLGHEGSGIIEAIGPNVTELQVGDHVVLSYGYCGKCTQCNTGNPAYCSEFFGRNFSGADSEGNHALCTHDQGVVNDHFFAQSSFATYALSRENNTVKVTKDVPIELLGPLGCGIQTGAGACINALKVTPASSFVTWGAGAVGLSALLAAKVCGASIIIAVDIVESRLELAKQLGATHVINSKTQDPVAAIKEITDGGVNFALESTGSPEILKQGVDALGILGKIAVVGAPQLGTTAQFDVNDLLLGGKTILGVVEGSGSPKKFIPELVRLYQQGKFPFDQLVKFYAFDEINQAAIDSRKGITLKPIIKIA | soluble
MTKKRVALIFGGNSSEHDVSKRSAQNFYNAIEATGKYEIIVFAIAQNGFFLDTESSKKILALEDEQPIVDAFMKTVDASDPLARIHALKSAGDFDIFFPVVHGNLGEDGTLQGLFKLLDKPYVGAPLRGHAVSFDKALTKELLTVNGIRNTKYIVVDPESANNWSWDKIVAELGNIVFVKAANQGSSVGISRVTNAEEYTEALSDSFQYDYKVLIEEAVNGARELEVGVIGNDQPLVSEIGAHTVPNQGSGDGWYDYNNKFVDNSAVHFQIPAQLSPEVTKEVKQMALDAYKVLNLRGEARMDFLLDENNVPYLGEPNTLPGFTNMSLFKRLWDYSDINNAKLVDMLIDYGFEDFAQNKKLSYSFVSLGEEKIGKFN | soluble
MRVVVVGTRGSALALAQTRFVVERLKETWPETEFKIRTIKTRGDQGASPREEAIFVKEIQEALLSREIDIAVHSLKDLPTESPRGLKIASVPRRQDPRDVFLGKAAKRLKDLPPGAVVGTSSVRRKAQILALRPDLVVRDLRGNVDTRLAALGNGEYDGIVLAAAGLIRLDLRNRIDEFLDPGEVLPAPGQGALALEVREGDDLAEELCYALHHPPSYHRVRAERAFLRGLGAGCLAPVGALAHVEEDGTLRLEGVLLTPDGKSFIRAEIEGDVSEAEELGLDLARDVLEQGGREILAQIR | soluble
MVLVLDFGSQYTRLIARRLRELRAFSLILPGDAPLEEVLKHRPQALILSGGPRSVFDPDAPRPDPRLFSSGLPLLGICYGMQLLAQELGGRVERAGRAEYGKALLTRHEGPLFRGLEGEVQVWMSHQDAVTAPPPGWRVVAETEENPVAAIASPDGRAYGVQFHPEVAHTPKGMQILENFLELAGVKRDWTPEHVLEELLREVRERAGKDRVLLAVSGGVDSSTLALLLAKAGVDHLAVFVDHGLLRLGEREEVEGALRALGVNLLVVDAKERFLKALKGVEDPEEKRKIIGREFVAAFSQVARERGPFRFLAQGTLYPDVIESAGGHGAAKIKSHHNVGGLPEDLEFELLEPFRLLFKDEVRELALLLGLPDTLRLRHPFPGPGLAVRVLGEVTEERLEILRRADDIFTSLLRERGLYEKVAQALAVLTPVRSVGVAGDERKYGYVLALRAVTTEDFMTADWARLPLEFLDEAARRITRRVPEIGRVVYDLTSKPPATIEWE | soluble
MPCRLRKITVYETKSRFYIIGCDSTGSRYNVLKIDRIDPKALITGEPEYDYTREEILELLATISDGSSVVYRSSSKKGTKSGLIERATNAFGILGCVRFVEGYYLIIITRAHAVATLGYHPVYKIVEVAMIPIAMDGVSTSSEEQKYVKLFQSVDLSTDFYFSYSYDMSRTFQENSLRSDWNNHGQRRLEADERFVWNSFLLEPLRKNLISERWFVEIVHGYVRQEYIFLPIGRISLTIIGRRSTKYAGTRFLKRGANPTGNVANYVETEQIVWDMASSGNVADGRFSSFVQMRGSVPMRWSQDPSTRGVVGKPLILIDNHEPHAQTAASHFRDVRNKYGNPIVIMNLIKRNEKRRHEGVLHTQFLKNIEYLNQFLPNEEKLCYISFDVARCNKAANSMPSINVLNVMEDLSMKSILKNGWFQSFPLSEALKIRPREAFATLDAHHSKDGRFMIQHGICRTNCVDCLDRTNVAQFVIAKVALGCQLCAMGILDEPNLTLQSEVCRLLEDMFDEHGDTMALQYAGSQLVHSIKTYKKTAAFQERRRDVFQTLSRYYSNTFNDWDKQMAINLFLGVFRPRITTMKNLWDLTSDYNLHFPYSLKINTDYCAWTLSEKELEDLVFLDYDESENSDGYVEIRSIDVDGRRGSEGSEYRTLLFSSHEDFRDYHRTYEFTSLDDRIGRLFSIENRAIQVDGINEEPTTHAQFLKLWKTTETKEKDQKKPNKKDKEEKESDDEDDDEEISTQWSDVVEAQQEWYDLVNAPGNVTTTLQKSPTKRESTPPRNTSRAKRSLLSTGLQFAKDIYHLDHLKTQPEERRYYEKYAITAFKCNVRDWEKVKPTLLSEFKITSEVEPRRPTFFTTDDCYRTESPEVSGNSARFYIKSSHPLTTECSAQDYGFFSKYMQAT | not soluble
MAQHHGHLGAVYDAAGPQEVAALYDRWAETYESEMARAGYRHPAIGVALLARHLPRGARPLLDAGAGTGLLGEWLEIVGYPEVEALDISAGMLEVARAKGIYARCHNLPLGAALPFRDGAFAGIISTGVFTTGHVGAEALPELLRICRPGGVIVLTVKESLWQGGFAVSLEAAVASGLEHHHHHH | not soluble
MNKNLHPIFAKRIQQVLDENGWSMADLSRRVMLSHTSVRKWASGTSVASGERLKRLSAVTGRPEYWFFMEPGDESEGERAEPKPRVLDEKEETLLSLFNQLPEAEKLRVILHTKAVLQEMDLLKNNVFDLINDLKK | not soluble
MSHYLSPGAYLPHDAPMLLLEDVVSVSDDSAVCRVTVSPSGVLAPFLDPDGNLPGWFTLELMAQTVGVWSGWHRHQQGKNSIELGMILGARELLCTTGILPAGQTLTITVKLLMQDDRFGSFECSINDGEATGRINTFQPTAEELTTLFQQGAS | not soluble
MNNFTMPDKKYFLFAARRADDQLILVVPKSGERFLMNEELLRRDYNVQLGDFLHCKINRSKELYDISKTKHTANISTVVNGDEAIIENLRADLVSSDELLLFQSQLFDDIRCWQSDQPIGRYYIKMRLFPTSREMSGRMIHYEVVKITGSVKSIELNKQQGNFQQNIDSGYSAASEKTESSAGFSQSPAAGLPSPQNLIYPAGSKKIVSQQGTQVVGPGCPLVKKEETPANKIMGTGFPKSTKREENVFGSELLQQKKNNEKPGSTVGKGFTTSQTIGEKQRAVVTSIDAKRPGTYYLWNLDSKTEGLLKSTTPLELGHQFAGIFVNQENGKCFCKEYIGEIERVLEGKVNDTNKVNLTVKLLDFQPAGVNRRRASGTAKYIGDVLEGNTEDTKLTIECIGKKVNIERRKFGEKDFVWMVTEIRNCSQYDQKIF | not soluble
MGSDKIHHHHHHMARQNKRQSDDRELARKFEELLKEGTPGFFDVSVYESIIQYYLEGTKFRKAHRTCDIAMEQHPYSVEIMLLKVQVLMQMTQFEEALEILDRAQLYQPNDTDIQLLRANIMAQQDDFEGAIELLEEILTLAEEKDEIHYHMGVIYQDMGNFEESINHLKEAIMLNSQHEDAIYELSYSLEVLDRLEESIDFFKQLIEKDPYSHFAWFCLGVSYFKQGKLDEALDAYEFVIAINDKYSSAYYNIGECYVYKNEYEKALEYFFQTMDMEDKTADVFYNIGFCYEHLGMHPKAIEFYRKASKADAYFHEAYYGIGKCLEAQDKSYESIHFFKRALKLDEANAEYWLAKANAEYKTGNIISSLEAFEEACVLEPSNPEVWKNWSFVHYESGDMDKAIDLINAGIDEMPGNADLYYRAVAYLITAGRYKEAFNYLENALTLNFDSHTVLFEFFPKLETQKALFRIIDQYRNK | not soluble
PGRFALVFKDVTDRRRSEEALRESEAMFRSLTEAMPQLVWSARPDGSCDFFNRRWTDCTGASTEMAMGDGWRAFYHPDDQPAIDRLWPKALRTGEHYEIEYRLRHRDGSYRWMLGRGVPVRDEAGGILRWMGTCTDIH | not soluble
MDAELFPRTRAETAPGAVHLPDWLSPGQQRELLDACREWARPPAGLRTVRTPGGGTMTARQVCLGRHWYPYGYAATAVDGDGAPVKPFPARLDGLARRAVTDALGAEAVAPAPYDIALINFYDADARMGMHRDADERTDAPVVSLSLGDTCVFRFGNPETRTRPYTDTELRSGDLFVFGGPSRLAYHGVPRVHPGTAPPELGLRGRLNITLRVSGFLEHHHHHH | not soluble
MGSDKIHHHHHHMKNNLNNILEDSLNYKIGETLDELKSIKKLDEIFSKRKDQLYREKDEGKKVYGRFCVFVPTEIICAADAIPVGLCGGKESTIPSAEEDLPRNICPLIKSSYGFKKDKACPYFEASDVIVGETTCDGKKKMFEHMAELSEMYVMHLPHFKDERSYELWLKEVYDFKDYVEKFTGNKITEEKLKEAIDEENEERMLSHKLYELRSQIPTPITGKDALKIFQRSFLLDIKDRLAILKEVISELEERVKNGEGYTGKRILVAGCPMVAGNTKIVDIIEEVGGLVVGEETCTGTRKFDNLVNGYTIDDLAERYFKINCASAFKNDSRIERIKELVKEQNADGVVYYTLQYCHTFNVEGALIEKELKNLGIPIIRIETDYSESDKEQIKTRLEAFVEMI | not soluble
